Results taken from paper PMC11629876.

Legend:
Assay in all cases: ELISA; dose response: host component coated, recombinant protein added at increasing concentrations, 2 h 37°C; detected with mouse antiserum; KD by non-linear regression, one site-specific binding (GraphPad Prism)
[1] = molecular target: plasminogen (human plasma) (human)
[2] = molecular target: cellular fibronectin (human foreskin fibroblasts) (human)
[3] = molecular target: collagen I (rat tail) (rat) (UniProt P02454)
[4] = molecular target: integrin α5β1 (UniProt P08648)
[5] = molecular target: integrin α8β1 (UniProt P53708)
[6] = molecular target: integrin αVβ1 (UniProt P06756)
[7] = molecular target: integrin αVβ3 (UniProt P06756)
[8] = molecular target: integrin αVβ5 (UniProt P06756)
[9] = molecular target: integrin αVβ6 (UniProt P06756)
[10] = molecular target: plasma fibronectin (human plasma) (human)
[11] = molecular target: vitronectin (human plasma) (human)

Chain of integrin α5β1 (P08648 42-1049, chain 1 of 2): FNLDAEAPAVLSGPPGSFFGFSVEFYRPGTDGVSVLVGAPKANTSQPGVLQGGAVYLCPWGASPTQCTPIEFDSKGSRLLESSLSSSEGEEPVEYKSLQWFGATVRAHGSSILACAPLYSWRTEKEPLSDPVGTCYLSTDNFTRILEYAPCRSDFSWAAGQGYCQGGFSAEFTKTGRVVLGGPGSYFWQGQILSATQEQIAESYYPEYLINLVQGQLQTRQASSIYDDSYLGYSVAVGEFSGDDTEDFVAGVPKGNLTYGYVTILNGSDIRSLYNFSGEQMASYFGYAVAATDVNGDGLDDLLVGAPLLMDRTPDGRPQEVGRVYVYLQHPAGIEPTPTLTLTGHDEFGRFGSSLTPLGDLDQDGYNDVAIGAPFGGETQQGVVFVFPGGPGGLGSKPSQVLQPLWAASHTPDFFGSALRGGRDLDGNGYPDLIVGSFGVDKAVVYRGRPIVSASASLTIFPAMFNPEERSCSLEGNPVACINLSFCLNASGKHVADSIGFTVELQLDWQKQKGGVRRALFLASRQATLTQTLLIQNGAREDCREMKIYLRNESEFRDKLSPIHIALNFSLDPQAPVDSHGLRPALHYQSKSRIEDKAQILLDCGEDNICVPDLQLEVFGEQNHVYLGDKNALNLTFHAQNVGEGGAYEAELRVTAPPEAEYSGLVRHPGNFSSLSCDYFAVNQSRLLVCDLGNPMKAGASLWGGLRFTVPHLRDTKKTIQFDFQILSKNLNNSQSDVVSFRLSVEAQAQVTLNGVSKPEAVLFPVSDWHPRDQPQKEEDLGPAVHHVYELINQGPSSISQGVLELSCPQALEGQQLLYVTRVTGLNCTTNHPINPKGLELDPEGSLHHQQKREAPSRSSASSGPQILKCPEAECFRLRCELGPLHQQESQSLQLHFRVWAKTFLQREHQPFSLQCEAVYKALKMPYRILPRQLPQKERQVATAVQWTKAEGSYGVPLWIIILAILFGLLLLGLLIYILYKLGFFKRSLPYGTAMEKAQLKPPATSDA
Chain of integrin α5β1 (P05556 21-728, chain 2 of 2, further chain): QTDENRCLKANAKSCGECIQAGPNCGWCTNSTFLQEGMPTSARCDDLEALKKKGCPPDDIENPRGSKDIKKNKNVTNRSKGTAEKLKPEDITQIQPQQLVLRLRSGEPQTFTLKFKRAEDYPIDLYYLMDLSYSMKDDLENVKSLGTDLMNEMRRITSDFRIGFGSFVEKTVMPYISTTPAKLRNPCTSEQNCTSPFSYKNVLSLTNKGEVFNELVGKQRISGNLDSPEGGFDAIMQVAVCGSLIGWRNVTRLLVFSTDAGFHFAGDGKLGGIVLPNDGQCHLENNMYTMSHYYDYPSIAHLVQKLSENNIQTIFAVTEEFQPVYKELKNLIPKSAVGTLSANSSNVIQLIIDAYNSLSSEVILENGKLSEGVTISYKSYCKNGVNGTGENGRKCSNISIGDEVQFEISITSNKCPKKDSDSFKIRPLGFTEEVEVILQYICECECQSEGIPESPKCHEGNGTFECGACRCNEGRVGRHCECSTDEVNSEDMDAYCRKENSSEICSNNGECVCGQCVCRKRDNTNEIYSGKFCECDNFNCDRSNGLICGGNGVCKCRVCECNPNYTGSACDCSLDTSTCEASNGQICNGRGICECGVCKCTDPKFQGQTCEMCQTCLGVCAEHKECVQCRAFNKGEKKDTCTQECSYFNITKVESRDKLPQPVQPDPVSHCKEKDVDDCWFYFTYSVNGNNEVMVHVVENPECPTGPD
Chain of collagen I (rat tail) (rat) (P02454 152-1207, chain 1 of 2): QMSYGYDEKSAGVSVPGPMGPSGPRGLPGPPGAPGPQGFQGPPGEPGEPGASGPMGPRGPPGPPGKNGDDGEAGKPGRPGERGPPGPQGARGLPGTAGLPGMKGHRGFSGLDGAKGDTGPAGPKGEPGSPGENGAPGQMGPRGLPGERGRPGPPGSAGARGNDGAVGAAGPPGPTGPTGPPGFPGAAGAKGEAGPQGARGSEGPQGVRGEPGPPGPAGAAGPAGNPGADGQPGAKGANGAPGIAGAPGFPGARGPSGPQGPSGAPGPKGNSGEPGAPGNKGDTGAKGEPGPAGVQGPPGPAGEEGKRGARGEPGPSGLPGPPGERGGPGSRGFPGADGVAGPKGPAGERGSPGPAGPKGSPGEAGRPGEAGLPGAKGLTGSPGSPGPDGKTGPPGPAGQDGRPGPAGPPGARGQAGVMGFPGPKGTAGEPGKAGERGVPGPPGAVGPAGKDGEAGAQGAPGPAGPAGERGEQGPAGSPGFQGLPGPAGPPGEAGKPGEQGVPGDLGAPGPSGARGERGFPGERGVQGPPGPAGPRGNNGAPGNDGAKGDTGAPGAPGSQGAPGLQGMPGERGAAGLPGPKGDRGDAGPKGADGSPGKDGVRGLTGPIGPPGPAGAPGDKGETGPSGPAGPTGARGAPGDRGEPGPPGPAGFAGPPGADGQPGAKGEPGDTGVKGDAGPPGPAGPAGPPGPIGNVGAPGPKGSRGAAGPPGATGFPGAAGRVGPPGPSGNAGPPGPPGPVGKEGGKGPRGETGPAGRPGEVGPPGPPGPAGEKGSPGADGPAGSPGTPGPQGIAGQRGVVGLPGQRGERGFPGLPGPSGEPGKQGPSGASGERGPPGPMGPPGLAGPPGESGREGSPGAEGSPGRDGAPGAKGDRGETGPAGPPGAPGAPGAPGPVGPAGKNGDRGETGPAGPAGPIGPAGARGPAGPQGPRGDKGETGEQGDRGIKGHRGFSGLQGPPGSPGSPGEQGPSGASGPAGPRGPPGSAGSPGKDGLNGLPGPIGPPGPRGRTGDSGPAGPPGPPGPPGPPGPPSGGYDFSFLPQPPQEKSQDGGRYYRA
Chain of collagen I (rat tail) (rat) (P02466 86-1125, chain 2 of 2, further chain): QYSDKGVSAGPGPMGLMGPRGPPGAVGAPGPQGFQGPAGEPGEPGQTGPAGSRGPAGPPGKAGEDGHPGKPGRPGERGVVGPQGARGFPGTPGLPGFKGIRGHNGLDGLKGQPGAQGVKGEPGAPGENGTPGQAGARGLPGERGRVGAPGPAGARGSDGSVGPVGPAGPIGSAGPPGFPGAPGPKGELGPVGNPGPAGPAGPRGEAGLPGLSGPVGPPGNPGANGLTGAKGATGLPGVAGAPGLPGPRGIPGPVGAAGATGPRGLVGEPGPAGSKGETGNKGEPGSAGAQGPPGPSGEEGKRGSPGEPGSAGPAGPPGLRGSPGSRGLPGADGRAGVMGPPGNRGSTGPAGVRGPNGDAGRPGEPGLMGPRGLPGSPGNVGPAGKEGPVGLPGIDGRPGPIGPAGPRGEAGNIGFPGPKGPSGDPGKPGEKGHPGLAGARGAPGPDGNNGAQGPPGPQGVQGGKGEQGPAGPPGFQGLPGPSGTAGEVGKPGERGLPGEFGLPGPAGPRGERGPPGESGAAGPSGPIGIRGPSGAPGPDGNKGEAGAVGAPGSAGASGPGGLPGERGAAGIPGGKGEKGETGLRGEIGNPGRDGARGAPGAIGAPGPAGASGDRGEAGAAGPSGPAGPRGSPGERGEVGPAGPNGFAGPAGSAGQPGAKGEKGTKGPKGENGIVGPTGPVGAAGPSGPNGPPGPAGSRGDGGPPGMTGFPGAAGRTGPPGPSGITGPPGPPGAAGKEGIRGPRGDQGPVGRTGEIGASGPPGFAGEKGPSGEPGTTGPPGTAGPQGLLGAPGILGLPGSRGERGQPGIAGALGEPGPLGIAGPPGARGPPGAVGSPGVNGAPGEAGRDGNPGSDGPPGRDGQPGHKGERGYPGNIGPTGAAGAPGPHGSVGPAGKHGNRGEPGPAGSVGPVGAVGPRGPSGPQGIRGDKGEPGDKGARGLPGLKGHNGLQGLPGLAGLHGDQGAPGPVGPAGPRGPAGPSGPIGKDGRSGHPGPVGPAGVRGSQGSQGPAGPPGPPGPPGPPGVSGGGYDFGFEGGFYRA
Chain of integrin αVβ1 (P06756 31-1048, chain 1 of 2): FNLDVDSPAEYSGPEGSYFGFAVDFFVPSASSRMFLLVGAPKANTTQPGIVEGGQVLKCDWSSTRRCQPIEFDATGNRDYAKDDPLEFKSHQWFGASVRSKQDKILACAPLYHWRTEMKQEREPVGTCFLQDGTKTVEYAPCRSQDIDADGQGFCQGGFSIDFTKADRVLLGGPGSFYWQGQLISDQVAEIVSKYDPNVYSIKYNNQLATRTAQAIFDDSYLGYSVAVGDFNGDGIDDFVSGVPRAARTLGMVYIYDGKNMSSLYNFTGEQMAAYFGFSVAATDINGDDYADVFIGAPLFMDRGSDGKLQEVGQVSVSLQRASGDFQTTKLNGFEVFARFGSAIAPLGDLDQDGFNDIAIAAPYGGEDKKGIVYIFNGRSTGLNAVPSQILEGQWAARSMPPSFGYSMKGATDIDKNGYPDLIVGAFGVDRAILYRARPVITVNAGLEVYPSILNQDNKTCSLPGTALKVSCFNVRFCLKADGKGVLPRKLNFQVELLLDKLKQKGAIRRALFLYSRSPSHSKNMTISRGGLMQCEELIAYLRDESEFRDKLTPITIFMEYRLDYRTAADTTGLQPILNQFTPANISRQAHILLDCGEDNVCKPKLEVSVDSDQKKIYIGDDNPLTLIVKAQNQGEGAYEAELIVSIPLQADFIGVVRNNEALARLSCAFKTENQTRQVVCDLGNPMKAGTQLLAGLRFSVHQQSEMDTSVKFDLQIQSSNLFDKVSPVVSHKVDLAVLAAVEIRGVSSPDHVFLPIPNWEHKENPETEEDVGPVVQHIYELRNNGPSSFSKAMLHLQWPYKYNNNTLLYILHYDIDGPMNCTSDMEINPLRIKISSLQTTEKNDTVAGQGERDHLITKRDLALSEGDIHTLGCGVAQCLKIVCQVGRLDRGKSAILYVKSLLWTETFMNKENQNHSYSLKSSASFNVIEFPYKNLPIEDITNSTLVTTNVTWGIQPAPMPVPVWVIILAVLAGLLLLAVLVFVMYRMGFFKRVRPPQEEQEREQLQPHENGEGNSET
Chain of integrin αVβ1 (P05556 21-728, chain 2 of 2, further chain): as the sequence (P05556 21-728, chain 2 of 2, further chain) above

## recombinant LIC11051 (rLIC11051), leucine-rich repeat protein of Leptospira interrogans serovar Copenhageni (natural protein)
[1]
  Kd: 42.6 nM

## recombinant LIC11505 (rLIC11505), leucine-rich repeat protein of Leptospira interrogans serovar Copenhageni (natural protein)
[2]
  Kd: 20.1 nM
[3]
  Kd: 80 nM
[4]
  Kd: 73.4 nM
[5]
  Kd: 191 nM
[6]
  Kd: 134 nM
[7]
  Kd: 152 nM
[8]
  Kd: 109 nM
[9]
  Kd: 74.9 nM
[10]
  Kd: 51.1 nM
[1]
  Kd: 24.2 nM
[11]
  Kd: 64.8 nM
